B1: h77A-1 (antibody, V domains shown)
VH: QIQLVQSGAEVKKPGASVKVSCKASGYTFTNYGMNWVRQAPGQGLEWMGWINTYTGEPTYADDFKGRFTFTTDTSTSTAYMELRSLRSDDTAVYFCARYDHAMDYWGQGTLVTVSS
VL: EIVLTQSPDSLAVSLGERATINCKSSQSLLNSGTRKNYLAWYQQKAGQSPKLLIYWTSTRESGVPDRFSGSGSGTDFTLTIDSLQAEDVAVYYCKQSYTLYTFGGGTKVEIK
notes: also called hVH-1 + hVL-1
B2: h77A-1.22 (antibody, V domains shown)
VH: B1 VH with A61S
VL: B1 VL with L30F
notes: captured by anti-human Fc
B3: h77A-1.94 (antibody, V domains shown)
VH: B1 VH with A61T
VL: B1 VL with L30F, L53I, G70A, T80S, S83R
notes: captured by anti-human Fc
B4: h77A-1.6 (antibody, V domains shown)
VH: B1 VH with S77R
VL: B1 VL
notes: captured by anti-human Fc
B5: h77A-1.8 (antibody, V domains shown)
VH: B1 VH
VL: B1 VL with N22K
notes: captured by anti-human Fc
B6: h77A-1.1 (antibody, V domains shown)
VH: B1 VH with N31K
VL: B1 VL
notes: captured by anti-human Fc
B7: h77A-1.16 (antibody, V domains shown)
VH: B1 VH with N31K
VL: B1 VL with N22K
notes: captured by anti-human Fc
B8: h77A-1.10 (antibody, V domains shown)
VH: B1 VH with A9D
VL: B1 VL
notes: captured by anti-human Fc
B9: h77A-1.12 (antibody, V domains shown)
VH: B1 VH
VL: B1 VL with L30F
notes: captured by anti-human Fc
B10: h77A-1.18 (antibody, V domains shown)
VH: B1 VH with S77R
VL: B1 VL with L53V
notes: captured by anti-human Fc
B11: h77A-1.59 (antibody, V domains shown)
VH: B1 VH with A9P, A61G, A97G
VL: B1 VL with S83R
notes: captured by anti-human Fc
B12: h77A-1.61 (antibody, V domains shown)
VH: B1 VH with T110S
VL: B1 VL with Q44K, A46S, T80S
notes: captured by anti-human Fc
B13: h77A-1.17 (antibody, V domains shown)
VH: B1 VH with N31K, A102S
VL: B1 VL
notes: captured by anti-human Fc
B14: h77A-1.74 (antibody, V domains shown)
VH: B1 VH with A9P, S77T, A79G
VL: B1 VL with N22K, V91I
notes: captured by anti-human Fc
B15: h77A-1.27 (antibody, V domains shown)
VH: B1 VH with A61T
VL: B1 VL with A12T
notes: captured by anti-human Fc
B16: h77A-1.75 (antibody, V domains shown)
VH: B1 VH with A9V, A61S, L83V
VL: B1 VL with L30F, T80S
notes: captured by anti-human Fc
B17: h77A-1.14 (antibody, V domains shown)
VH: B1 VH with A61T
VL: B1 VL
notes: captured by anti-human Fc
B18: h77A-1.46 (antibody, V domains shown)
VH: B1 VH with A9V
VL: B1 VL with N22K, Q44K
notes: captured by anti-human Fc
B19: h77A-1.71 (antibody, V domains shown)
VH: B1 VH with A9S, E82D
VL: B1 VL with A12S, N22K, A86T
notes: captured by anti-human Fc
B20: h77A-1.19 (antibody, V domains shown)
VH: B1 VH with A61V, E82D
VL: B1 VL
notes: captured by anti-human Fc
B21: h77A-1.30 (antibody, V domains shown)
VH: B1 VH with L83V
VL: B1 VL with L53I
notes: captured by anti-human Fc

Substitutions are numbered along the chain they refer to.

T1 sequence (P0DMV8 whole entry, change not shown): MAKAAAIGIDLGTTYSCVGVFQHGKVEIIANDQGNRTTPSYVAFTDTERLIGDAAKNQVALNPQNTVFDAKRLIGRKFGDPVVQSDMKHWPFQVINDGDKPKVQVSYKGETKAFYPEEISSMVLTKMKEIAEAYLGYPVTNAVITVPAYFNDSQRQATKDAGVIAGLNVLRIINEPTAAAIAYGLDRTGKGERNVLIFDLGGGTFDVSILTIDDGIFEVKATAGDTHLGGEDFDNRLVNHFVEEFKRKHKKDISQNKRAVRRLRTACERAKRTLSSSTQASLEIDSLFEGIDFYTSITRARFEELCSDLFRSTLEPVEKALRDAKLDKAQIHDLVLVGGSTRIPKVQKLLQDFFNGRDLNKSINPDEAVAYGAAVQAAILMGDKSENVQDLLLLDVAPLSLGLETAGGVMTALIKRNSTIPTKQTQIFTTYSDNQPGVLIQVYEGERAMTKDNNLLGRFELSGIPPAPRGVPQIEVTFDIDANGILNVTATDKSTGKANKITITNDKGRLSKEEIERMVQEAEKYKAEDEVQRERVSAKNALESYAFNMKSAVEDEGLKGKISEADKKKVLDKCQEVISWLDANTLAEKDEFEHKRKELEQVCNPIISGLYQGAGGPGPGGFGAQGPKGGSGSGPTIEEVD

One experiment has as its target T1, HSP70 (human HSP70; the antigen of the binning, humanization and variant binding assays) (human, UniProt P0DMV8 1-641, limits assumed).
T1 construct: also called hu HSP70
As to the kind of experiment: BLI, anti-human Fc capture, antigen dilution series, 1:1 fit. Here is the method: (§1) Further kinetics assays were conducted for select antibody variants. Assays were performed as follows. Antibody variants were immobilized using anti-human Fc onto the surface of a series of biosensors. Antigen was passed over the surface to generate a binding response. Binding data for the antibody: antigen interactions were collected at 25° C. on the biosensors. A dilution series of the antigen was used in the association step, in order to fit results globally and get the best values for ka, kd, and KD. The response data for the binding of antigen to the surface immobilized antibody were fitted to a 1:1 binding model.
(In general: BLI is a label-free optical method that tracks binding on a fibre tip over time.)
The term Kd denotes the concentration at which binding is half-saturated. Read a high Kd as a looser complex. The term koff denotes a measure of how fast the partners let go of each other. Read a low koff as a long-lived complex. What is called kon is the rate constant with which the complex forms. A high value points to faster complex formation. As for B1, the Kd is 2.39 nM, the dissociation rate constant (koff) worked out at 0.000131 s⁻¹ and the kon was 54700 M⁻¹ s⁻¹.
Turning to B2, the affinity, expressed as Kd, was 1.14 nM; the koff was found to be 7.64e-05 s⁻¹; the association rate constant (kon) amounted to 66900 M⁻¹ s⁻¹.
B3 came in with a Kd of 1.85 nM, an off-rate (koff) of 0.000111 s⁻¹ and a kon of 59900 M⁻¹ s⁻¹.
Molecule B4 came in with a Kd of 2.11 nM, a koff of 0.000114 s⁻¹ and a kon of 54200 M⁻¹ s⁻¹.
The matching figures for B5: 1.35 nM, 7.42e-05 s⁻¹ and 54800 M⁻¹ s⁻¹.
For the molecule B6, binding was characterised by a dissociation constant (Kd) of 0.69 nM, the koff was 6.11e-05 s⁻¹ and the kon turned out to be 88500 M⁻¹ s⁻¹.
Turning to B7, the Kd stood at 1.27 nM, the koff was found to be 6.84e-05 s⁻¹ and the kon worked out at 54000 M⁻¹ s⁻¹.
B8 yielded a Kd of 2.48 nM, a koff of 0.000145 s⁻¹ and a kon of 58400 M⁻¹ s⁻¹.
The matching figures for B9: 1.43 nM, 7.37e-05 s⁻¹ and 51700 M⁻¹ s⁻¹.
For B10, the equilibrium dissociation constant (Kd) turned out to be 1.44 nM, the off-rate (koff) was 9.1e-05 s⁻¹ and the kon came out at 63200 M⁻¹ s⁻¹.
Turning to B11, binding was put at a Kd of 2.93 nM, the koff came to 0.00012 s⁻¹ and the kon stood at 40800 M⁻¹ s⁻¹.
The matching figures for B12: 2.91 nM, 0.000123 s⁻¹ and 42100 M⁻¹ s⁻¹.
Molecule B13 had a Kd of 1.51 nM, a koff of 9.24e-05 s⁻¹ and a kon of 61400 M⁻¹ s⁻¹.
The like results for B14 were, in that order, 1.61 nM, 0.000125 s⁻¹ and 77800 M⁻¹ s⁻¹.
The matching figures for B15: 1.41 nM, 0.000108 s⁻¹ and 76400 M⁻¹ s⁻¹.
The matching figures for B16: 0.28 nM, 2.43e-05 s⁻¹ and 88100 M⁻¹ s⁻¹.
The molecule B17 gave a Kd of 1.97 nM, a koff of 0.000124 s⁻¹ and a kon of 63100 M⁻¹ s⁻¹.
On to B18, for which the Kd stood at 2.24 nM, the koff turned out to be 0.000123 s⁻¹ and the on-rate (kon) was found to be 54800 M⁻¹ s⁻¹.
The molecule B19 returned a Kd of 2.51 nM, a koff of 0.000123 s⁻¹ and a kon of 49000 M⁻¹ s⁻¹.
Consider B20, for which the Kd came out at 1.26 nM, the off-rate (koff) is 0.000111 s⁻¹ and the kon was found to be 88500 M⁻¹ s⁻¹.
Take B21: binding was put at a Kd of 1.93 nM, the koff came out at 0.000109 s⁻¹ and the kon is 56700 M⁻¹ s⁻¹.

The target of a further experiment is T1, HSP70 (human HSP70; the antigen of the …). As to the kind of experiment: BLI, anti-human Fc capture, antigen 100 nM. In a few lines:
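Antibody variants captured on anti-human Fc biosensors at […]; antigen at 100 nM flowed over, 25° C. Captured antigen recorded at 610 s (start of dissociation) and 1495 s (end of dissociation), giving % dissociation.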
For B1, the “% Diss” value stood at 7.63%.
As to B2, the “% Diss” value is 6.5%.
For B3, the “% Diss” value was found to be 5.24%.
Turning to B4, the “% Diss” value turned out to be 6.58%.
Still for that read-out and setting: the value for B5 was 8.62%; that for B6 was 3.88%.
B7: the “% Diss” value is 3.25%.
As for B8, the “% Diss” value is 8.76%.
Same read-out and setting: the value for B9 was 4.74%; that for B10 was 7.15%.
As for B11, the “% Diss” value came out at 9.8%.
For B12, the “% Diss” value stood at 6.66%.
With B13, the “% Diss” value turned out to be 7.04%.
B14: the “% Diss” value turned out to be 9.07%.
B15: the “% Diss” value was found to be 6.74%.
Regarding B16, the “% Diss” value was found to be 5.34%.
Still for that read-out and setting: the result for B17 reads 7.88%; that for B18, 6.22%; that for B19, 7.93%.
On to B20, for which the “% Diss” value came out at 8.73%.
As for B21, the “% Diss” value is 5.1%.

The next experiment has the same target. As to the kind of experiment: BLI, antibody on sensor. As for the experimental part: Humanized variants were characterized for binding using biolayer interferometry (BLI). Chimeric antibodies including the murine 77A antigen binding region and human Fe regions were also tested. Antibodies and reagents were diluted out onto microwell plates and loaded into the instrument. Diluted antibodies were first immobilized onto dip-and-read sensors, and then measurements for baselines were acquired. Subsequently, the sensors were dipped into wells containing the antigen in solution, or buffer alone. The change in number of molecules bound to the sensor was quantified by measurement of the shift in the interference pattern of light during each step of the protocol. Mathematical modeling was performed based on those values and the concentrations of reagents used in the assay and used to calculate kinetics values.
The molecule B1 yielded a Kd of 2.61 nM, a koff of 0.000173 s⁻¹ and a kon of 66200 M⁻¹ s⁻¹.

A further experiment shares this target. As to the kind of experiment: BLI, anti-human Fc capture, steady state. As for the experimental part: as §1
With B1, the “KD Steady State” value was 1.2 nM.
Still for that read-out and setting: the value for B2 was 0.81 nM; that for B3 was 1.3 nM; that for B4 was 1.8 nM.
With B5, the “KD Steady State” value came to 0.31 nM.
Still for that read-out and setting: the value for B6 was 0.032 nM.
Same read-out and setting: the value for B7 was 1.3 nM; that for B8 was 2.6 nM; that for B9 was 1.1 nM.
Take B10: the “KD Steady State” value was 0.81 nM.
With B11, the “KD Steady State” value amounted to 0.74 nM.
For the molecule B12, the “KD Steady State” value turned out to be 2.1 nM.
As to B13, the “KD Steady State” value is 1.3 nM.
Take B14: the “KD Steady State” value stood at 1.7 nM.
Consider B15, for which the “KD Steady State” value was 0.89 nM.
Still for that read-out and setting: the value for B16 was 0.023 nM; that for B17 was 0.77 nM.
Still for that read-out and setting: the result for B18 reads 1.2 nM.
Take B19: the “KD Steady State” value was 1.3 nM.
Same read-out and setting: the value for B20 was 1.2 nM.
Turning to B21, the “KD Steady State” value was determined as 0.86 nM.

For the origin of these results see patent US20250084155A1 (University of Texas, published 2025).
